Experimental data: PMC12102759

B1: NEK9 peptide 738-753 (Serine/threonine-protein kinase Nek9), 16-mer library wild type / NSP9 (ORF1ab Nsp9, residues 4141-4253) (parent)
chain 1: SGLSIGTVFQSSSPGG
chain 2: NNELSPVALRQMSCAAGTTQTACTDDNALAYYNTTKGGRFVLALLSDLQDLKWARFPKSDGTGTIYTELEPPCRFVTDTPKGPKVKYLYFIKGLNNLNRGMVLGSLAATVRLQ
B2: NCOA2 peptide 1075-1090 (Nuclear receptor coactivator 2), 16-mer library wild type / NSP3 UBl1 (ORF1ab Nsp3a Ub1, residues 819-925) (parent)
chain 1: DEGALLDQLYLALRNF
chain 2: APTKVTFGDDTVIEVQGYKSVNITFELDERIDKVLNEKCSAYTVELGTEVNEFACVVADAVIKTLQPVSELLTPLGIDLDEWSMATYYLFDESGEFKLASHMYCSFY
B3: NEK9 peptide 736-751 (Serine/threonine-protein kinase Nek9), 16-mer library wild type / NSP9 (ORF1ab Nsp9, residues 4141-4253) (parent)
chain 1: NSSGLSIGTVFQSSSP
chain 2: B1 chain 2

Variants of: B1
Conditions: with NSP9 (ORF1ab Nsp9, residues 4141-4253); bait immobilised on MaxiSorp plates (10 µg), library pre-cleared on GST, 2 h binding at 4 °C, five washes; one round per day, days 1-4; value from days 2 and 3; keep out of graded; scale: average fractional NGS count over selection days 2 and 3

| Variant | screen value |
| --- | --- |
| chain 1 S12I | 0 |
| chain 1 S12D | 0 |
| chain 1 S12E | 0 |
| chain 1 P14R | 0 |
| chain 1 P14E | 2.37e-05 |
| chain 1 P14T | 0 |
| chain 1 T7Q | 0 |
| chain 1 T7S | 0 |
| chain 1 T7D | 0 |
| chain 1 T7P | 0.000499 |
| chain 1 T7E | 0.000776 |
| chain 1 S13V | 0 |
| chain 1 S13N | 2.85e-05 |
| chain 1 S13Q | 0 |
| chain 1 S13G | 0 |
| chain 1 I5E | 0 |
| chain 1 Q10I | 0 |
| chain 1 Q10E | 0.000217 |
| chain 1 S4Y | 0 |
| chain 1 S4D | 0 |
| chain 1 S4P | 0 |
| chain 1 S4W | 0 |
| chain 1 S4K | 0 |
| chain 1 S11A | 0 |
| chain 1 S11T | 0 |
| chain 1 S11D | 2.69e-05 |
| chain 1 S11N | 0 |

| Variant | screen value |
| --- | --- |
| chain 1 G2V | 0 |
| chain 1 G2I | 0 |
| chain 1 G2L | 0 |
| chain 1 S1N | 0.000364 |
| chain 1 S1M | 1.76e-05 |
| chain 1 S1D | 0.000541 |
| chain 1 S1H | 0 |
| chain 1 S1L | 0 |
| chain 1 S1E | 2.09e-05 |
| chain 1 S1Y | 0 |
| chain 1 G15W | 0 |
| chain 1 G15A | 0 |
| chain 1 G15E | 0 |
| chain 1 G15Q | 4.92e-05 |
| chain 1 G15S | 0 |
| chain 1 G15D | 0 |
| chain 1 G15V | 0.000116 |
| chain 1 L3V | 0.000196 |
| chain 1 L3W | 0 |
| chain 1 V8H | 0.000119 |
| chain 1 V8G | 0 |
| chain 1 V8P | 0 |
| chain 1 V8Q | 0.000101 |
| chain 1 V8E | 2.09e-05 |
| chain 1 V8K | 0 |
| chain 1 V8A | 3.17e-05 |
| chain 1 V8D | 0.000118 |

Variants of: B2
Conditions: with NSP3 UBl1 (ORF1ab Nsp3a Ub1, residues 819-925); bait immobilised on MaxiSorp plates (10 µg), library pre-cleared on GST, 2 h binding at 4 °C, five washes; one round per day, days 1-4; value from days 2 and 3; keep out of graded; scale: average fractional NGS count over selection days 2 and 3

| Variant | screen value |
| --- | --- |
| chain 1 Q8G | 8.24e-06 |
| chain 1 Q8P | 1.57e-05 |
| chain 1 L11S | 0.000175 |
| chain 1 L11M | 0 |
| chain 1 L11Q | 0 |
| chain 1 L11F | 0 |
| chain 1 R14K | 0 |
| chain 1 R14N | 2.08e-05 |
| chain 1 R14F | 2.17e-05 |
| chain 1 R14D | 0.000475 |
| chain 1 R14Y | 5.46e-06 |
| chain 1 A12W | 0 |
| chain 1 G3N | 7.33e-06 |
| chain 1 G3R | 2.99e-05 |
| chain 1 A4Y | 0.00107 |
| chain 1 A4L | 7.15e-06 |

| Variant | screen value |
| --- | --- |
| chain 1 L9K | 0 |
| chain 1 L9I | 7.34e-06 |
| chain 1 L9T | 0 |
| chain 1 L9H | 0 |
| chain 1 L9V | 1.9e-05 |
| chain 1 L6E | 0 |
| chain 1 L6D | 0 |
| chain 1 L6G | 0 |
| chain 1 E2N | 0 |
| chain 1 N15H | 5.47e-06 |
| chain 1 N15A | 1.68e-05 |
| chain 1 N15L | 0.000158 |
| chain 1 N15F | 0.113 |
| chain 1 N15V | 0.00016 |
| chain 1 N15I | 2.73e-05 |

Variants of: B3
Conditions: with NSP9 (ORF1ab Nsp9, residues 4141-4253); bait immobilised on MaxiSorp plates (10 µg), library pre-cleared on GST, 2 h binding at 4 °C, five washes; one round per day, days 1-4; value from days 2 and 3; keep out of graded; scale: average fractional NGS count over selection days 2 and 3

| Variant | screen value |
| --- | --- |
| chain 1 L5K | 0 |
| chain 1 L5V | 4.92e-05 |
| chain 1 L5Q | 0 |
| chain 1 L5R | 0 |
| chain 1 F11P | 0.0001 |
| chain 1 F11M | 0.000187 |
| chain 1 F11G | 0.000245 |
| chain 1 F11I | 0.000239 |
| chain 1 F11E | 0.000183 |
| chain 1 F11R | 0 |
| chain 1 I7L | 9.86e-05 |
| chain 1 I7S | 0 |
| chain 1 I7G | 0 |
| chain 1 Q12P | 0 |
| chain 1 Q12V | 0 |
| chain 1 Q12E | 0.00594 |
| chain 1 Q12M | 1.76e-05 |
| chain 1 Q12I | 0 |
| chain 1 Q12Y | 1.21e-05 |
| chain 1 Q12N | 0.000424 |
| chain 1 Q12D | 3.3e-05 |

| Variant | screen value |
| --- | --- |
| chain 1 Q12A | 1.81e-05 |
| chain 1 Q12S | 4.58e-05 |
| chain 1 G8D | 0.000107 |
| chain 1 G8Y | 0 |
| chain 1 G8T | 0 |
| chain 1 S6L | 9.77e-05 |
| chain 1 S6A | 0.000439 |
| chain 1 S6Q | 0 |
| chain 1 S6W | 0 |
| chain 1 S6V | 0 |
| chain 1 S6F | 0 |
| chain 1 S6Y | 0 |
| chain 1 S15K | 0 |
| chain 1 S15L | 2.69e-05 |
| chain 1 S15A | 2.5e-05 |
| chain 1 S15I | 4.92e-05 |
| chain 1 S15M | 0.000159 |
| chain 1 S15G | 3.5e-05 |
| chain 1 S3E | 0.000394 |
| chain 1 S3V | 0 |
| chain 1 S3D | 0.000508 |

| Variant | screen value |
| --- | --- |
| chain 1 S3K | 0 |
| chain 1 S3H | 3.04e-05 |
| chain 1 S3M | 5.44e-05 |
| chain 1 S3W | 0.000185 |
| chain 1 S3Q | 0.000703 |
| chain 1 T9E | 0.00124 |
| chain 1 T9S | 0 |
| chain 1 T9D | 0.00026 |
| chain 1 T9P | 6.33e-05 |
| chain 1 T9L | 0 |
| chain 1 T9Y | 2.09e-05 |
| chain 1 T9N | 0.000187 |
| chain 1 T9H | 1.62e-05 |
| chain 1 T9G | 0 |
| chain 1 S13G | 1.34e-05 |
| chain 1 S13A | 0 |
| chain 1 S13M | 0 |
| chain 1 S13L | 1.28e-05 |
| chain 1 S13D | 0.000121 |
| chain 1 S13T | 0.000105 |
| chain 1 S13H | 8.96e-05 |

| Variant | screen value |
| --- | --- |
| chain 1 S13E | 0.000579 |
| chain 1 P16V | 0.000367 |
| chain 1 P16Q | 0 |
| chain 1 P16K | 0.000119 |
| chain 1 P16M | 0 |
| chain 1 P16N | 4.17e-05 |
| chain 1 P16T | 2.95e-05 |
| chain 1 P16D | 0.000477 |
| chain 1 P16F | 0 |
| chain 1 P16L | 3.5e-05 |
| chain 1 V10T | 0 |
| chain 1 V10F | 0 |
| chain 1 V10S | 5.93e-05 |
| chain 1 V10D | 0.000207 |
| chain 1 G4Y | 0 |
| chain 1 G4W | 0 |
| chain 1 G4I | 0 |
| chain 1 S14D | 7.14e-05 |
| chain 1 S14I | 0.0016 |
